Data as given in patent US20100015126A1, “Methods of Binding of Cross-Beta Structures By Chaperones” (priority 2006, published 2010).

Experiments:
[1] = molecular target: T1, human BiP (Homo sapiens, UniProt P11021); experiment: ELISA: binding of BiP-FLAG-His to immobilized (misfolded) protein ligands; settings: ligands coated at 5 μg/ml; 6BB peptides and oxLDL 50 μg/ml
T1 construct: The human BiP gene except the signal peptide encoding region was obtained from Geneart (Germany); linker […]; made in house; host or cells: HEK 293E cells, transient transfection, PABC674 vector; secreted into the medium
T1 sequence (P11021 19-654): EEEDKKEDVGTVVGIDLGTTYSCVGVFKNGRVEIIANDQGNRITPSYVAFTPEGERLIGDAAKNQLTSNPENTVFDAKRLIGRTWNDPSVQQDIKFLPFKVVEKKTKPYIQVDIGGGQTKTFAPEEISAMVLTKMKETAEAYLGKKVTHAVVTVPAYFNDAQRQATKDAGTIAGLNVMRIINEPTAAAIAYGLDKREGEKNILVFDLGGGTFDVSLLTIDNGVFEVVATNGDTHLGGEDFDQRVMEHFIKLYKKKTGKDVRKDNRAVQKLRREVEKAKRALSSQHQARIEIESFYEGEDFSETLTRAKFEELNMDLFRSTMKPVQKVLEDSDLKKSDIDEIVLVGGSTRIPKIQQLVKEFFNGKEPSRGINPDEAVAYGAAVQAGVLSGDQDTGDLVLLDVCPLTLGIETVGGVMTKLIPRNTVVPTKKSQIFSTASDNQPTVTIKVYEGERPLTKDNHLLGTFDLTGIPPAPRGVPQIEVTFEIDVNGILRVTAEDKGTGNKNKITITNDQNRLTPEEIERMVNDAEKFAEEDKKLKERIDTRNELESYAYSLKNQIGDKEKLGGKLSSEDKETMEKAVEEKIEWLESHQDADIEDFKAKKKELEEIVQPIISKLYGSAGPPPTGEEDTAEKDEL
Protocol: Enzyme Linked Immunosorbent Assay for Testing of Chaperone Binding to Misfolded Proteins
(§1) Binding of chaperones to immobilized (misfolded) protein ligands was determined using an enzyme linked immuno sorbent assay (ELISA) approach. For this purpose 50 μl/well of potential ligands at indicated concentrations or coat buffer only for control and background measurement purposes, were coated overnight at 4° C. or coated for 1 h at room temperature, with motion, in 50 mM NaHCO3 pH 9.6 (coat buffer). In general, ligands were coated at 5 μg/ml, unless stated otherwise. For example, BiP binding peptides 6BB# and oxLDL were coated at 50 μg/ml. Native haemoglobin (Sigma-Aldrich, H7379), albumin, IgIV Gammagard and ovalbumin controls were prepared from lyophilized stocks. The controls were prepared by dissolving lyophilized proteins at 1 mg/ml in PBS upon resuspending by pipetting, followed by a 30 minutes period at the roller device, at room temperature. The protein solutions were centrifuged for 10 minutes at 16,000*g and diluted in coat buffer. After coating the plates were washed at least three times with 50 mM Tris-HCl pH 7.3, 150 mM NaCl, 0.1% v/v Tween20, and blocked with Blocking reagent (Roche Diagnostics, Almere, The Netherlands; 11112589001), for 1 h at room temperature, with motion. Plates were washed three times and incubated in triplicate with indicated chaperone dilution series, at 50 μl/well, for 1 h at room temperature, with constant motion. For HSP90, 5 mM DTT is incorporated in the binding buffer (PBS/0.1% Tween20) to avoid unwanted disulfide bond formation of the HSP90. Plates were washed three times and incubated with anti-FLAG antibody (mouse antibody, M2, peroxidase conjugate; Sigma, A-8592) for BiP-FLAG-His, anti-His-tag antibody (Mouse Monoclonal Antibody, Cat. No. 70796, Novagen [0.2 mg/ml]) for HSP60, a 1:1 mix of 500-fold diluted anti-HSP90beta antibodies (Stressgen, SPA-643 [mouse monoclonal IgM], SPA-646 [rabbit polyclonal]) for HSP90 and an anti-DnaK antibody (Stressgen, 023SPA-880D [mouse monoclonal antibody]) for DnaK. After four wash cycles, secondary antibodies were added to the wells when required, 50 μl/well, for 45′ at room temperature, with motion. RAMPO and SWARPO were used at 3000 times dilution. […] In a second experiment with more immobilized misfolded proteins and controls, the detection of bound HSP90 with the mix of two anti-HSP90 antibodies was achieved by mixing 1:1500 SWARPO with 1:3000 RAMPO. After 5 washes with wash buffer followed by two washes with PBS, binding of antibodies was assessed. Bound anti-FLAG-PO, peroxidase-conjugated rabbit anti-mouse immunoglobulins (RAMPO, P0260, DAKOCytomation, Glostrup, Denmark) or peroxidase-coupled swine anti-rabbit immunoglobulins (SWARPO, P0217, DAKOCytomation) was visualized with tetramethylbenzidine (TMB, #45.01.20,/#45.014.01, Biosource, Nivelles, Belgium). The reaction was stopped after 5 minutes with 1% H2SO4 in H2O. Plates were read at 450 nm. Triplicates were averaged and standard deviations calculated. Background signals obtained with buffer-coated wells were subtracted (binding of primary antibody to empty wells), as well as background signals obtained with ligand-coated wells in which the chaperones were omitted (binding of primary and secondary antibody to coated ligands). Subsequently, sub-optimal concentrations of chaperones for binding to misfolded protein ligands are determined, and these concentrations are used for inhibition studies. […] We have previously identified that a sub-fraction of IgIV molecules has affinity for misfolded proteins comprising crossbeta structure (pending patent application). Moreover, we identified that the sub-fraction of IgIV molecules directly binds to crossbeta structure and/or crossbeta structure induced conformation (not shown; pending patent application). […]

[2] = Transmission electron microscopy (TEM); assay type: physicochemical; settings: 2.5 mg/ml peptide stocks
Protocol: Transmission Electron Microscopy (TEM)
TEM images were collected using a Jeol 1200 EX transmission electron microscope (Jeol Ltd., Tokyo, Japan) at an excitation voltage of 80 kV. For each sample, the formvar and carbon-coated side of a 100-mesh copper or nickel grid was positioned on a 5 μl drop of protein solution for 5 minutes. Afterwards, it was positioned on a 100 μl drop of PBS for 2 minutes, followed by three 2-minute incubations with a 100 μl drop of distilled water. The grids were then stained for 2 minutes with a 100 μl drop of 2% (m/v) methylcellulose with 0.4% uranyl acetate pH 4. Excess fluid was removed by streaking the side of the grids over filter paper, and the grids were subsequently dried under a lamp. Samples were analysed at a magnification of 10K.

[3] = molecular target: T2, Escherichia coli HSP70 family member DnaK (Escherichia coli, UniProt P0A6Y8); experiment: ELISA: binding of DnaK to immobilized (misfolded) protein ligands
T2 construct: purchased Stressgen (Ann Arbor, Mich., USA) SPP-630
T2 sequence (P0A6Y8 whole entry): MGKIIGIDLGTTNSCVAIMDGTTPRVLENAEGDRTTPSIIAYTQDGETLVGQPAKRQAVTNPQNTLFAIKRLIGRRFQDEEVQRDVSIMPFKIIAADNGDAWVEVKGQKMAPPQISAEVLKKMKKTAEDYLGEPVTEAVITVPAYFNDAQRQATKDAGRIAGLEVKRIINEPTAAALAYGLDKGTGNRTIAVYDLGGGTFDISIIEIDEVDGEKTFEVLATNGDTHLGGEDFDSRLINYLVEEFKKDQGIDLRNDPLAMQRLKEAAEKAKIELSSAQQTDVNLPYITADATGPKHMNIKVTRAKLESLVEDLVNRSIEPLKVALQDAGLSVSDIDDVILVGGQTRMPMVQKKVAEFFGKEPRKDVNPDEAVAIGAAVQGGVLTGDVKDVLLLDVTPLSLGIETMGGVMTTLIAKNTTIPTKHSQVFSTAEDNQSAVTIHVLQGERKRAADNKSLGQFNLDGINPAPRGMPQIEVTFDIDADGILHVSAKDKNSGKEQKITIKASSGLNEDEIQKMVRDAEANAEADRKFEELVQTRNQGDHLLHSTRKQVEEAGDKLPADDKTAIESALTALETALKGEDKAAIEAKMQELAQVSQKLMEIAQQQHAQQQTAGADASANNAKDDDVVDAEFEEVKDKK
Protocol: Recombinant Escherichia coli (E. coli) DnaK was purchased from Stressgen (Ann Arbor, Mich., USA; SPP-630). For the binding studies first lot B502468 (100 μg, lot A) and then lot 05240609 (200 μg, lot B) was used.
as §1

[4] = molecular target: T1, human BiP; experiment: Competition ELISA: BiP binding to misfolded proteins under influence of crossbeta binding compounds; settings: fixed sub-optimal BiP concentration
Protocol: Binding of chaperones to immobilized (misfolded) protein ligands was determined using an enzyme linked immuno sorbent assay (ELISA) approach. For this purpose 50 μl/well of potential ligands at indicated concentrations or coat buffer only for control and background measurement purposes, were coated overnight at 4° C. or coated for 1 h at room temperature, with motion, in 50 mM NaHCO3 pH 9.6 (coat buffer). In general, ligands were coated at 5 μg/ml, unless stated otherwise. For example, BiP binding peptides 6BB# and oxLDL were coated at 50 μg/ml. Native haemoglobin (Sigma-Aldrich, H7379), albumin, IgIV Gammagard and ovalbumin controls were prepared from lyophilized stocks. The controls were prepared by dissolving lyophilized proteins at 1 mg/ml in PBS upon resuspending by pipetting, followed by a 30 minutes period at the roller device, at room temperature. The protein solutions were centrifuged for 10 minutes at 16,000*g and diluted in coat buffer. After coating the plates were washed at least three times with 50 mM Tris-HCl pH 7.3, 150 mM NaCl, 0.1% v/v Tween20, and blocked with Blocking reagent (Roche Diagnostics, Almere, The Netherlands; 11112589001), for 1 h at room temperature, with motion. Plates were washed three times and incubated in triplicate with indicated chaperone dilution series, at 50 μl/well, for 1 h at room temperature, with constant motion. For HSP90, 5 mM DTT is incorporated in the binding buffer (PBS/0.1% Tween20) to avoid unwanted disulfide bond formation of the HSP90. […] After four wash cycles, secondary antibodies were added to the wells when required, 50 μl/well, for 45′ at room temperature, with motion. RAMPO and SWARPO were used at 3000 times dilution. […] In a second experiment with more immobilized misfolded proteins and controls, the detection of bound HSP90 with the mix of two anti-HSP90 antibodies was achieved by mixing 1:1500 SWARPO with 1:3000 RAMPO. After 5 washes with wash buffer followed by two washes with PBS, binding of antibodies was assessed. Bound anti-FLAG-PO, peroxidase-conjugated rabbit anti-mouse immunoglobulins (RAMPO, P0260, DAKOCytomation, Glostrup, Denmark) or peroxidase-coupled swine anti-rabbit immunoglobulins (SWARPO, P0217, DAKOCytomation) was visualized with tetramethylbenzidine (TMB, #45.01.20,/#45.014.01, Biosource, Nivelles, Belgium). The reaction was stopped after 5 minutes with 1% H2SO4 in H2O. Plates were read at 450 nm. Triplicates were averaged and standard deviations calculated. Background signals obtained with buffer-coated wells were subtracted (binding of primary antibody to empty wells), as well as background signals obtained with ligand-coated wells in which the chaperones were omitted (binding of primary and secondary antibody to coated ligands). Subsequently, sub-optimal concentrations of chaperones for binding to misfolded protein ligands are determined, and these concentrations are used for inhibition studies.
In a subsequent study we analysed whether BiP interacts directly with the crossbeta structure, by performing ELISA binding studies with a fixed sub-optimal concentration of BiP and concentration series of crossbeta binding compounds. The results are depicted in FIGS. 12, 13 and Table 7. Binding of BiP without added crossbeta binding compounds was set to 100%.

[5] = molecular target: T1, human BiP; experiment: ELISA: binding of BiP in cell culture supernatant to immobilized misfolded proteins; settings: undiluted supernatant of 293E cells overexpressing BiP; ligands coated at 5 μg/ml, Aβ 20 μg/ml
Protocol: Binding of BiP to Misfolded Proteins with Crossbeta Structure
Proteins at 5 μg/ml were coated for 1 h at room temperature with agitation, in Microlon high-binding ELISA plates (Greiner) in 50 mM NaHCO3 pH 9.6, except for Aβ that was coated at 20 μg/ml. Buffer was coated as negative control. A twofold dilutions series of cell culture supernatant of HEK 293E cells overexpressing BiP was also coated to the plate for anti-FLAG-tag antibody control purposes. Plates were washed and blocked with ½*Blocking reagent (Roche). Undiluted cell culture supernatant enriched with 0.1% Tween20 was added to the wells with immobilized protein ligands and incubated for 1 h at room temperature with agitation. Medium was discarded and the plate was washed with PBS with 0.1% v/v Tween20. Mouse monoclonal anti-FLAG-tag antibody (Sigma, A8592, anti-FLAG M2PO conjugate) was diluted 1000× in PBS/0.1% Tween20 and added to all wells, including those that are coated with cell culture supernatant. After a 1 h incubation at room temperature with agitation and after washing, wells were overlayed with 3000× diluted RAMPO (DAKOCytomation) in PBS/0.1% Tween20. After 30 minutes the plate was washed and bound peroxidase was visualised with tetramethylbenzidine (TMB, #45.103.20/#45.014.01, Biosource, Nivelles, Belgium). The reaction was stopped after 5 minutes with 10% H2SO4 in H2O. Plates were read at 450 nm.

| Substance | Binding of concentration series of BiP to coated ligand [1] | TEM [2] | Binding of concentration series of DnaK to coated ligand [3] | Influence of Congo red on interaction of BiP with misfolded protein ([4]; concentration series of Congo red) | Influence of ThS on interaction of BiP with misfolded protein ([4]; concentration series of ThS) | Influence of ThT on interaction of BiP with misfolded protein ([4]; concentration series of ThT) | Binding of BiP to immobilized protein (ELISA) [5] |
| --- | --- | --- | --- | --- | --- | --- | --- |
| HWDFAWPW [6BB10] | has been established | Nothing visible^† | did not bind | ↓ (a ↓ sign refers to inhibited abolished binding of BiP) | ↓ (a ↓ sign refers to inhibited abolished binding of BiP) | ↓ (a ↓ sign refers to inhibited abolished binding of BiP) | – |
| d-lysozyme: heat-denatured hen egg-white lysozyme | – | – | – | – | – | – | more pronounced |
